From article PMC8482623 (Nature structural & molecular biology, 2020)

Molecular target: the molecule itself
Assay: crystal structure

B1: truncated mouse Bcs1 lacking the TM and Bcs1-specific domains (ΔNmBcs1, residues 151-418) (domain or fragment)
chain: not shown
- stoichiometry N: 7
